This data set concerns the molecule itself. In words: crystal structure.

B1: Nucleoside diphosphate kinase B (NDPKB), human (enzyme)
chain: ANLERTFIAIKPDGVQRGLVGEIIKRFEQKGFRLVAMKFLRASEEHLKQHYIDLKDRPFFPGLVKYMNSGPVVAMVWEGLNVVKTGRVMLGETNPADSKPGTIRGDFCIQVGRNIIHGSDSVKSAEKEISLWFKPEELVDYKSCAHDWVYE
modifications: phosphorylated histidine at 118 (His 118-P) in the crystal
Turning to B1, the stoichiometry N (as a rule, a count of units in the complex or per binding partner) was 6.

(Values after paper doi:10.1101/2024.02.16.580631 (bioRxiv, 2024).)
